The values below come from patent publication US20190315873A1 (AGOMAB THERAPEUTICS, published 2019).

Test [1] has as its target T1, human MET ECD (human, UniProt P08581 25-932).
T1 construct: range 1-932; recombinant ECD made by standard protein engineering; also called hMET; human MET extracellular domain
Kind of test: ELISA: MET ECD immobilized (100 ng/well), mAb in human IgG1/lambda format in solution (0-40 nM), HRP anti-human Fc. An excerpt: (§1) To this end, we investigated whether our human/mouse equivalent anti-MET antibodies cross-reacted with MET from other species, including rat (Rattus norvegicus) and cynomolgus monkey (Macaca fascicularis). […] Human and mouse MET ECD were used as controls. A restricted panel of antibodies representative of both SEMA binders (71D6, 71C3, 71D4, 71A3, 71G2) and PSI binders (76H10, 71G3) was selected. The 5D5 prior art antibody was used as control. MET ECD proteins were immobilized in solid phase (100 ng/well in a 96-well plate) and exposed to increasing concentrations (0-40 nM) of antibodies (with human constant regions) in solution. […] We conclude that the 71D6, 71C3, 71D4, 71A3, 71G2, 76H10 and 71G3 antibodies bind with similar affinity and capacity to human MET, mouse MET, rat MET and simian MET, at least as determined by ELISA.

The target in test [2] is monkey MET ECD (cynomolgus monkey). The description is as above.
Test [3] deals with T1, human MET ECD. Description: ELISA, mouse-format mAb on MET ECD. The protocol: (§2) In order to directly determine whether—and to what extent—the prior art agonistic anti-MET antibodies cross-reacted with mouse MET, and to compare them to our human/mouse equivalent anti-MET antibodies, we performed an ELISA assay. Since all prior art antibodies were obtained or engineered with a mouse IgG/A format, we employed the mouse IgG/A version of 71G3, 71D6 and 71G2. Human or mouse MET ECD was immobilized in solid phase (100 ng/well in a 96-well plate) and exposed to increasing concentrations of antibodies (0-40 nM) in solution. […] Among the antibodies tested, only 71G3, 71D6 and 71G2 bound to both human and mouse MET, and they did so with indistinguishable affinities and capacities.

The target of test [4] is T2, mouse MET ECD (mouse, UniProt P16056 25-931).
T2 construct: range 1-931; recombinant ECD; also called mMET; mouse MET extracellular domain
Description: ELISA, mouse-format mAb on MET ECD. The protocol:
as §2

Test [5] has as its target T3, mouse MET on MLP29 mouse liver precursor cells (mouse, UniProt P16056 25-1379).
T3 construct: whole, on cells; also called native mouse MET
Description: flow cytometry, MLP29 cells.

In test [6] the target is T2, mouse MET ECD. Kind of test: ELISA on MET ECD.
The target in test [7] is T3, mouse MET on MLP29 mouse liver …. Kind of test: cell-based or functional assay.
Test [8] has as its target T4, human MET on A549 human lung carcinoma cells (human, UniProt P08581 25-1390). Description: cell-based or functional assay.
Test [9] has as its target T4, human MET on A549 human lung carcinoma …. Kind of test: flow cytometry, A549 cells.
Another test has as its target T5, monkey MET ECD (cynomolgus monkey, UniProt A0A2K5UM36 25-932).
T5 construct: also called simian MET; cynomolgus monkey MET
Description: ELISA: MET ECD immobilized (100 ng/well), mAb in human IgG1/lambda format in solution (0-40 nM), HRP anti-human Fc.
Source text: as §1

For test [10], the target named is T2, mouse MET ECD. The test is described as above.
Source text: as §1

The target in test [11] is human MET ECD mutant J (mutations 6, 7) (human) (UniProt P08581). Description: ELISA on mutant human MET ECD.
Test [12] has as its target human MET ECD mutant I (mutations 6, 7, 8) (human) (UniProt P08581). Kind of test: ELISA on mutant human MET ECD.
The target in the next test is rat MET ECD (rat) (UniProt P97523). Kind of test: ELISA: MET ECD immobilized (100 ng/well), mAb in human IgG1/lambda format in solution (0-40 nM), HRP anti-human Fc.
The target of test [13] is T1, human MET ECD. Kind of test: ELISA on MET ECD.

Sequence of rat MET ECD (rat) (P97523 25-931 limits assumed, form in doubt): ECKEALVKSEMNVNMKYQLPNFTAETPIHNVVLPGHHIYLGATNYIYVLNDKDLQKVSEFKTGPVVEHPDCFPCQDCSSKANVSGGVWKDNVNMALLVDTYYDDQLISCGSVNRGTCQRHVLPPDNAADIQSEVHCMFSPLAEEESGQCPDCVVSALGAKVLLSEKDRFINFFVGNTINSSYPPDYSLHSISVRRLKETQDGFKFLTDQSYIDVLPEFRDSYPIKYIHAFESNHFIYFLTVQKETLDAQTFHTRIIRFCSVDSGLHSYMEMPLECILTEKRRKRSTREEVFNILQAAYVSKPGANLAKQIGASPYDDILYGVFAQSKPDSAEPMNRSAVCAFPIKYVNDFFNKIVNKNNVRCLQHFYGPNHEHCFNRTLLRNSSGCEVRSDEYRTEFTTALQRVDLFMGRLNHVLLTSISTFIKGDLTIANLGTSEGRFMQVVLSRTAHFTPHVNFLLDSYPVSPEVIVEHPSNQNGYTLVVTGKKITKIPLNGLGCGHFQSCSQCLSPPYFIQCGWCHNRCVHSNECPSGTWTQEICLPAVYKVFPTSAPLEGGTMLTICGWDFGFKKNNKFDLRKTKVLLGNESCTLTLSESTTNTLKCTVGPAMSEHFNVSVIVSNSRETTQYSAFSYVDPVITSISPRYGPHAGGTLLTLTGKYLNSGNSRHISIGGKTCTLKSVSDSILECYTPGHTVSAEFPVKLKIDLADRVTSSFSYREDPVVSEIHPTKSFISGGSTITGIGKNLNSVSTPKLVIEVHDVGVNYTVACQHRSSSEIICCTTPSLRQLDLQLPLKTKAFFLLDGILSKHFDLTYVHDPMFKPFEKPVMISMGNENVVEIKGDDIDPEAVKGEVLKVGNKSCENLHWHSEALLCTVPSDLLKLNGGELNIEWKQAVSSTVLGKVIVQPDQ
T5 sequence (A0A2K5UM36 entry or part of it limits assumed): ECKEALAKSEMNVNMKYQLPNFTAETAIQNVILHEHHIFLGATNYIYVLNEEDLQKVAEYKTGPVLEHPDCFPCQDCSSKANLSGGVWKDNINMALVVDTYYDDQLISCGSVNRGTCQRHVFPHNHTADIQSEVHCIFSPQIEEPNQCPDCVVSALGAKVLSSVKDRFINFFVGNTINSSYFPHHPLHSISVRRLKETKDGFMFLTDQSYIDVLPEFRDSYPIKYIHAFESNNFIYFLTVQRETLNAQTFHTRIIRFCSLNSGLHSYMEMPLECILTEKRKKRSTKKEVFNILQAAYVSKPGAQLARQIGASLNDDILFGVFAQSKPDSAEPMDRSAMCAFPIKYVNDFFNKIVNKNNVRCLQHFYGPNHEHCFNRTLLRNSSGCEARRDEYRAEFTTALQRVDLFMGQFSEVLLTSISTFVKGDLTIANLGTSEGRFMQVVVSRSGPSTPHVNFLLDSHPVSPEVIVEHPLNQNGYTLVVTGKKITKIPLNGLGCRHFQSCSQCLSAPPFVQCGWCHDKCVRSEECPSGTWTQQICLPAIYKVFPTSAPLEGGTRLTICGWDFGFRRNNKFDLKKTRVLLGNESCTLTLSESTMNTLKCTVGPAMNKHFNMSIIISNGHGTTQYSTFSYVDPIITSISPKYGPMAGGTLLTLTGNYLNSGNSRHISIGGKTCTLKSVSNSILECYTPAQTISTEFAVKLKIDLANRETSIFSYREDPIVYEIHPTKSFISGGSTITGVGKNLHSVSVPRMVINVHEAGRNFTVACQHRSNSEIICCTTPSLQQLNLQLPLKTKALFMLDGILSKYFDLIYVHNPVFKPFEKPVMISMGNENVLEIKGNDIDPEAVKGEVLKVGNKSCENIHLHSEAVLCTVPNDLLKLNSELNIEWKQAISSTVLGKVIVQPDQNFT
Sequence of monkey MET ECD (cynomolgus monkey) (A0A2K5 entry or part of it limits assumed): as the sequence (A0A2K5UM36 entry or part of it limits assumed) above

“5D5 anti-human MET antibody, human IgG1/lambda format”: the EC50 (read off the curve) in the test with human MET ECD [1] turned out to be 0.2 nM; in [2], 0.3 nM.

B1: 71G3 llama-mouse chimeric mAb (mouse IgG1/lambda) (antibody)
heavy: QVQLVESGGGLVQPGGSLRVSCAASGFTFSTYYMSWVRQAPGKGLEWVSDIRTDGGTYYADSVKGRFTMSRDNAKNTLYLQMNSLKPEDTALYYCARTRIFPSGYDYWGQGTQVTVSSAKTTPPSVYPLAPGSAAQTNSMVTLGCLVKGYFPEPVTVTWNSGSLSSGVHTFPAVLQSDLYTLSSSVTVPSSPRPSETVTCNVAHPASSTKVDKKIVPRDCGCKPCICTVPEVSSVFIFPPKPKDVLTITLTPKVTCVVVDISKDDPEVQFSWFVDDVEVHTAQTQPREEQFNSTFRSVSELPIMHQDWLNGKEFKCRVNSAAFPAPIEKTISKTKGRPKAPQVYTIPPPKEQMAKDKVSLTCMITDFFPEDITVEWQWNGQPAENYKNTQPIMNTNGSYFVYSKLNVQKSNWEAGNTFTCSVLHEGLHNHHTEKSLSHSPGK
light: QAVVTQEPSLSVSPGGTVTLTCGLSSGSVTTSNYPGWFQQTPGQAPRTLIYNTNSRHSGVPSRFSGSISGNKAALTIMGAQPEDEADYYCSLYPGSTTVFGGGTHLTVLGQPKSSPSVTLFPPSSEELETNKATLVCTITDFYPGVVTVDWKVDGTPVTQGMETTQPSKQSNNKYMASSYLTLTARAWERHSSYSCQVTHEGHTVEKSLSRADCS
notes: also called 71G3 (mouse format)
Take B1: the results for the EC50 in the test with human MET ECD [3] and with mouse MET ECD [6] were 0.058 nM and 0.062 nM, respectively. The EMAX stood at 3.11 OD450 with human MET ECD [3], 3.06 OD450 in the test with mouse MET ECD [4], 110 % CTR in [5] and 116 % CTR in test [9]. For the same molecule, the “MLP29 MET act. EMAX” value in test [7] amounted to 91.9 % HGF. Besides, in test [8], the “A549 MET act. EMAX” value was found to be 90.8 % HGF.

B2: 71G3 llama-human chimeric mAb (human IgG1/lambda) (antibody)
heavy: QVQLVESGGGLVQPGGSLRVSCAASGFTFSTYYMSWVRQAPGKGLEWVSDIRTDGGTYYADSVKGRFTMSRDNAKNTLYLQMNSLKPEDTALYYCARTRIFPSGYDYWGQGTQVTVSSASTKGPSVFPLAPSSKSTSGGTAALGCLVKDYFPEPVTVSWNSGALTSGVHTFPAVLQSSGLYSLSSVVTVPSSSLGTQTYICNVNHKPSNTKVDKKVEPKSCDKTHTCPPCPAPELLGGPSVFLFPPKPKDTLMISRTPEVTCVVVDVSHEDPEVKFNWYVDGVEVHNAKTKPREEQYNSTYRVVSVLTVLHQDWLNGKEYKCKVSNKALPAPIEKTISKAKGQPREPQVYTLPPSRDELTKNQVSLTCLVKGFYPSDIAVEWESNGQPENNYKTTPPVLDSDGSFFLYSKLTVDKSRWQQGNVFSCSVMHEALHNHYTSEVFVPQSRKVI
light: QAVVTQEPSLSVSPGGTVTLTCGLSSGSVTTSNYPGWFQQTPGQAPRTLIYNTNSRHSGVPSRFSGSISGNKAALTIMGAQPEDEADYYCSLYPGSTTVFGGGTHLTVLQPKAAPSVTLFPPSSEELQANKATLVCLISDFYPGAVTVAWKADSSPVKAGVETTTPSKQSNNKYAASSYLSLTPEQWKSHRSYSCQVTHEGSTVEKTVAPTECS
Take B2: the “EC50 (read off the curve)” value is around 0.04 nM with monkey MET ECD, around 0.08 nM with human MET ECD [1], around 0.04 nM in the test with mouse MET ECD [10] and 0.1 nM with rat MET ECD (rat). Further, the % binding (EMAX) vs WT MET ECD in test [11] was determined as 91.2%; in test [12], 100%.

B3: 71D6 llama-mouse chimeric mAb (mouse IgG1/lambda) (antibody)
heavy: ELQLVESGGGLVQPGGSLRLSCAASGFTFSSYGMSWVRQAPGKGLEWVSAINSYGGSTSYADSVKGRFTISRDNAKNTLYLQMNSLKPEDTAVYYCAKEVRADLSRYNDYESYDYWGQGTQVTVSSAKTTPPSVYPLAPGSAAQTNSMVTLGCLVKGYFPEPVTVTWNSGSLSSGVHTFPAVLQSDLYTLSSSVTVPSSPRPSETVTCNVAHPASSTKVDKKIVPRDCGCKPCICTVPEVSSVFIFPPKPKDVLTITLTPKVTCVVVDISKDDPEVQFSWFVDDVEVHTAQTQPREEQFNSTFRSVSELPIMHQDWLNGKEFKCRVNSAAFPAPIEKTISKTKGRPKAPQVYTIPPPKEQMAKDKVSLTCMITDFFPEDITVEWQWNGQPAENYKNTQPIMNTNGSYFVYSKLNVQKSNWEAGNTFTCSVLHEGLHNHHTEKSLSHSPGK
light: QPVLNQPSALSVTLGQTAKITCQGGSLGARYAHWYQQKPGQAPVLVIYDDDSRPSGIPERFSGSSSGGTATLTISGAQAEDEGDYYCQSADSSGSVFGGGTHLTVLGQPKSSPSVTLFPPSSEELETNKATLVCTITDFYPGVVTVDWKVDGTPVTQGMETTQPSKQSNNKYMASSYLTLTARAWERHSSYSCQVTHEGHTVEKSLSRADCS
notes: also called 71D6 (mouse format)
Regarding B3, the values for the EC50 with human MET ECD [3], with mouse MET ECD [4] and in the test with human MET ECD [13] were 0.042 nM, 0.044 nM and 0.038 nM, respectively. For the same molecule, the EMAX in the test with human MET ECD [3] came out at 2.69 OD450; in the test with mouse MET ECD [4], 2.94 OD450; in test [5] it was 119 % CTR; in test [9], 122 % CTR. Besides, the “MLP29 MET act. EMAX” value in test [7] is 103 % HGF. Also, the “A549 MET act. EMAX” value in [8] turned out to be 98.3 % HGF.

B4: 76H10 llama-human chimeric mAb (human IgG1/lambda) (antibody, V domains shown)
VH: QLQLVESGGGLVQPGGSLRVSCTASGFTFNTYYMTWVRQAPGKGLEWVSDINSGGGTYYADSVKGRFTISRDNAKNTLYLQMNSLKPEDTALYYCVRVRIWPVGYDYWGQGTQVTVSS
VL: QAVVTQEPSLSVSPGGTVTLTCGLSSGSVTTSNYPGWFQQTPGQAPRTLIYNTNNRHSGVPSRFSGSISGNKAALTITGAQPEDEADYYCSLYTGSYTTVFGGGTHLTVLQ
B4: the “EC50 (read off the curve)” value with monkey MET ECD is around 0.04 nM; with human MET ECD [1], around 0.1 nM; in the test with mouse MET ECD [10], around 0.03 nM; in the test with rat MET ECD (rat), 0.1 nM. For the same molecule, the % binding (EMAX) vs WT MET ECD in [11] came out at 89%; in [12], 100%.

B5: 71G2 llama-mouse chimeric mAb (mouse IgG1/lambda) (antibody)
heavy: EVQLQESGGGLVQPGGSLRLSCAASGFTFSIYDMSWVRQAPGKGLEWVSTINSDGSSTSYVDSVKGRFTISRDNAKNTLYLQMNSLKPEDTAVYYCAKVYGSTWDVGPMGYGMDYWGKGTLVTVSSAKTTPPSVYPLAPGSAAQTNSMVTLGCLVKGYFPEPVTVTWNSGSLSSGVHTFPAVLQSDLYTLSSSVTVPSSPRPSETVTCNVAHPASSTKVDKKIVPRDCGCKPCICTVPEVSSVFIFPPKPKDVLTITLTPKVTCVVVDISKDDPEVQFSWFVDDVEVHTAQTQPREEQFNSTFRSVSELPIMHQDWLNGKEFKCRVNSAAFPAPIEKTISKTKGRPKAPQVYTIPPPKEQMAKDKVSLTCMITDFFPEDITVEWQWNGQPAENYKNTQPIMNTNGSYFVYSKLNVQKSNWEAGNTFTCSVLHEGLHNHHTEKSLSHSPGK
light: SSALTQPSALSVSLGQTARITCQGGSLGSSYAHWYQQKPGQAPVLVIYGDDSRPSGIPERFSGSSSGGTATLTISGAQAEDEDDYYCQSTDSSGNTVFGGGTRLTVLGQPKSSPSVTLFPPSSEELETNKATLVCTITDFYPGVVTVDWKVDGTPVTQGMETTQPSKQSNNKYMASSYLTLTARAWERHSSYSCQVTHEGHTVEKSLSRADCS
notes: also called 71G2 (mouse format)
As for B5, the EC50 with human MET ECD [3] came out at 0.098 nM; in the test with mouse MET ECD [4] it was 0.091 nM; with human MET ECD [13] it was 0.113 nM; with mouse MET ECD [6], 0.109 nM. Besides, the EMAX with human MET ECD [3] came out at 2.86 OD450; with mouse MET ECD [4] it was 2.96 OD450; in test [5] it was 128 % CTR; in test [9], 142 % CTR. Moreover, the “MLP29 MET act. EMAX” value in test [7] was 102 % HGF. For the same molecule, the “A549 MET act. EMAX” value in test [8] stood at 102 % HGF.
